Test results: paper PMC3089514 (The Journal of Biological Chemistry, 2011)
Residue numbers refer to the chain shown, from its start. Names may count otherwise.

B1: Rluc-tagged β-arrestin 1 wild type (natural protein, UniProt P17870 1-418, looked up)
chain: MGDKGTRVFKKASPNGKLTVYLGKRDFVDHIDLVEPVDGVVLVDPEYLKERRVYVTLTCAFRYGREDLDVLGLTFRKDLFVANVQSFPPAPEDKKPLTRLQERLIKKLGEHAYPFTFEIPPNLPCSVTLQPGPEDTGKACGVDYEVKAFCAENLEEKIHKRNSVRLVIRKVQYAPERPGPQPTAETTRQFLMSDKPLHLEASLDKEIYYHGEPISVNVHVTNNTNKTVKKIKISVRQYADICLFNTAQYKCPVAMEEADDTVAPSSTFCKVYTLTPFLANNREKRGLALDGKLKHEDTNLASSTLLREGANREILGIIVSYKVKVKLVVSRGGLLGDLASSDVAVELPFTLMHPKPKEEPPHREVPEHETPVDTNLIELDTNDDDIVFEDFARQRLKGMKDDKEEEEDGTGSPRLNDR
B2: Rluc-tagged phosphorylation-independent β-arrestin 1 mutant R169E (natural protein, UniProt P17870 1-418, looked up)
chain: B1 chain with R169E
B3: Rluc-tagged β-arrestin 2 wild type (natural protein, UniProt P32120 1-420, looked up)
chain: MGEKPGTRVFKKSSPNCKLTVYLGKRDFVDHLDKVDPVDGVVLVDPDYLKDRKVFVTLTCAFRYGREDLDVLGLSFRKDLFIANYQAFPPTPNPPRPPTRLQERLLRKLGQHAHPFFFTIPQNLPCSVTLQPGPEDTGKACGVDFEIRAFCAKSLEEKSHKRNSVRLVIRKVQFAPEKPGPQPSAETTRHFLMSDRSLHLEASLDKELYYHGEPLNVNVHVTNNSTKTVKKIKVSVRQYADICLFSTAQYKCPVAQVEQDDQVSPSSTFCKVYTITPLLSNNREKRGLALDGKLKHEDTNLASSTIVKEGANKEVLGILVSYRVKVKLVVSRGGDVSVELPFVLMHPKPHDHIALPRPQSAATHPPTLLPSAVPETDAPVDTNLIEFETNYATDDDIVFEDFARLRLKGLKDEDYDDQFC
B4: Rluc-tagged phosphorylation-independent β-arrestin 2 mutant R170E (natural protein, UniProt P32120 1-420, looked up)
chain: B3 chain with R170E

Experiments:
Experiment in all cases: FRET or BRET
[1] = biological target: T1, EGFP-tagged human orexin receptor 2 (human, UniProt O43614 1-444)
T1 sequence (looked up): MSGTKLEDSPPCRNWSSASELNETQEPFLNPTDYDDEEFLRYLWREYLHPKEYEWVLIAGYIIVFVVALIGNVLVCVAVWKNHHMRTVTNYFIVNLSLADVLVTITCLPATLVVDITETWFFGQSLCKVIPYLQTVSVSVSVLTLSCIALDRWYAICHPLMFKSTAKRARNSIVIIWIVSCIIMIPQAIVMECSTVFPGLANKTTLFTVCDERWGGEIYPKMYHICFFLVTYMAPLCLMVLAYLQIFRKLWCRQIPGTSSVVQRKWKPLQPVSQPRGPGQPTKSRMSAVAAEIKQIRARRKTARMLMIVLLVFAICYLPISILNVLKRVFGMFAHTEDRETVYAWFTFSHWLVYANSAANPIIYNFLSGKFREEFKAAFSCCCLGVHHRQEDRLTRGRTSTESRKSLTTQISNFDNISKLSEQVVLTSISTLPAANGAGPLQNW

[2] = biological target: T2, EGFP-tagged human orexin receptor 1 (human, UniProt O43613 1-425)
T2 sequence (looked up): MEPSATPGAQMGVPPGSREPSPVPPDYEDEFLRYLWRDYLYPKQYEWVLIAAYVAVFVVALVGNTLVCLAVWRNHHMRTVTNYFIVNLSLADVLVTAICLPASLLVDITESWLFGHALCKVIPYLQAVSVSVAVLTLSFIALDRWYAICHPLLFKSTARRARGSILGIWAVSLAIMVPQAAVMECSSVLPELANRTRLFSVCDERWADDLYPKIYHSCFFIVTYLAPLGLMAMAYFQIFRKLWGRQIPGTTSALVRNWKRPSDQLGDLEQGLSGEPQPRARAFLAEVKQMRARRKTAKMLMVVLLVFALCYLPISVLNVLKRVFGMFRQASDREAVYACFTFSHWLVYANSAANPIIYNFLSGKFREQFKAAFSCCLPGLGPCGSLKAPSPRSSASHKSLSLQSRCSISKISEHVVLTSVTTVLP

[3] = biological target: T1, EGFP-tagged human orexin receptor 2; remark: listed apart in the source
[4] = biological target: T2, EGFP-tagged human orexin receptor 1; remark: listed apart in the source

Binder | EC50 of the agonist OxA for receptor-β-arrestin BRET [1] [nM] | EC50 of the agonist OxA for receptor-β-arrestin BRET [2] [nM] | EC50 of the agonist OxB for receptor-β-arrestin BRET [3] [nM] | EC50 of the agonist OxB for receptor-β-arrestin BRET [4] [nM]
B1 | 376 | 777 | 334 | 
B2 | 139 | 412 | 228 | 3770
B3 | 215 | 719 | 384 | 
B4 | 162 | 401 | 278 | 3790
